Read-outs that look alike come from different tables or passages of the source. Values belong to the binder of their own block, whether it stands above or below them.
Assays:
[1] = molecular target: T1, 4H619-bA; test: two-hybrid library CCNG1;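 also: natural log of median RNA to DNA barcode read ratio; higher means stronger binding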
T1 chain: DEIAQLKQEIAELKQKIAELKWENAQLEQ

[2] = molecular target: T2, 4H918-bH; test: two-hybrid library CCNG1;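 also: natural log of median RNA to DNA barcode read ratio; higher means stronger binding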
T2 chain: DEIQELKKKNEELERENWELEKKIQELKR

[3] = molecular target: T3, 4H584-bA; test: two-hybrid library CCNG1;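 also: natural log of median RNA to DNA barcode read ratio; higher means stronger binding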
T3 chain: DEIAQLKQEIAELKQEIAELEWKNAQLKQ

[4] = molecular target: T4, 4H3817-bA; test: two-hybrid library CCNG1;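 also: natural log of median RNA to DNA barcode read ratio; higher means stronger binding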
T4 chain: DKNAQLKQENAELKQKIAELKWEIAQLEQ

[5] = molecular target: T5, 4H883-bN; test: two-hybrid library CCNG1;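 also: natural log of median RNA to DNA barcode read ratio; higher means stronger binding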
T5 chain: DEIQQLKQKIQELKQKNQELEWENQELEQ

[6] = molecular target: T6, 4H3638-bA; test: two-hybrid library CCNG1;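 also: natural log of median RNA to DNA barcode read ratio; higher means stronger binding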
T6 chain: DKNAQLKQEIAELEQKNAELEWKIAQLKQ

[7] = molecular target: T7, 4H570-bA; test: two-hybrid library CCNG1
T7 chain: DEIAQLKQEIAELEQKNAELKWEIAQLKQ

[8] = molecular target: T8, 4H3974-bA; test: two-hybrid library CCNG1
T8 chain: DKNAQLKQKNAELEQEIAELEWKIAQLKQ

[9] = molecular target: T9, 4H850-bA; test: two-hybrid library CCNG1
T9 chain: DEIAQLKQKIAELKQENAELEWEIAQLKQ

[10] = molecular target: T10, 4H906-bA; test: two-hybrid library CCNG1
T10 chain: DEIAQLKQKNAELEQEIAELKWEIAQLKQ

[11] = molecular target: T11, 4H797-AA; test: two-hybrid library CCmax
T11 chain: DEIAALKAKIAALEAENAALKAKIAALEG

[12] = molecular target: T12, 4H881-AA; test: two-hybrid library CCmax; details: mean of both orientations
T12 chain: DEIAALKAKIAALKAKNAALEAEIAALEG

[13] = molecular target: T13, 4H967-AA; test: two-hybrid library CCmax; details: mean of both orientations
T13 chain: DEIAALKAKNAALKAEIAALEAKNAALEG

[14] = molecular target: T14, 4H794-AA; test: two-hybrid library CCmax; details: mean of both orientations
T14 chain: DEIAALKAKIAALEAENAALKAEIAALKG

[15] = molecular target: T15, 4H906-AA; test: two-hybrid library CCmax; details: mean of both orientations
T15 chain: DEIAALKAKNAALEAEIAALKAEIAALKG

[16] = molecular target: T16, 4H918-AA; test: two-hybrid library CCmax; details: mean of both orientations
T16 chain: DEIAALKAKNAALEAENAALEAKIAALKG

[17] = molecular target: T17, 4H993-AA; test: two-hybrid library CCmax; details: mean of both orientations
T17 chain: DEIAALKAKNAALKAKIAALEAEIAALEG

[18] = molecular target: T18, 4H953-AA; test: two-hybrid library CCmax; details: mean of both orientations
T18 chain: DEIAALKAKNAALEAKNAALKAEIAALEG

[19] = molecular target: T19, 4H780-AA; test: two-hybrid library CCmax; details: mean of both orientations
T19 chain: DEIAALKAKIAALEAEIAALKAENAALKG

[20] = molecular target: T20, 4H883-AA; test: two-hybrid library CCmax
T20 chain: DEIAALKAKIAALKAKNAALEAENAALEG

[21] = molecular target: T21, 4H717-AA; test: two-hybrid library CCmax
T21 chain: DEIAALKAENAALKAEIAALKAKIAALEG

[22] = molecular target: T22, 4H4001-bA; test: two-hybrid library CCNG1
T22 chain: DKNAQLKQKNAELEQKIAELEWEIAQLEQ

[23] = molecular target: T23, 4H918-bA; test: two-hybrid library CCNG1
T23 chain: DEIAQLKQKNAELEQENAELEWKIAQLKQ

[24] = molecular target: T24, 4H754-bA; test: two-hybrid library CCNG1
T24 chain: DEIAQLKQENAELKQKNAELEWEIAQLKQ

[25] = molecular target: T25, 4H687-bA; test: two-hybrid library CCNG1
T25 chain: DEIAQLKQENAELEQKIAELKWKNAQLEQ

[26] = molecular target: T26, 4H953-bA; test: two-hybrid library CCNG1
T26 chain: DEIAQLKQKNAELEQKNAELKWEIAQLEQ

[27] = molecular target: T27, 4H687-bN; test: two-hybrid library CCNG1
T27 chain: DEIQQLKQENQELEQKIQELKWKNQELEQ

[28] = molecular target: T28, 4H717-bA; test: two-hybrid library CCNG1
T28 chain: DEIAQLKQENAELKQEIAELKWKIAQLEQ

[29] = molecular target: T29, 4H462-bN; test: two-hybrid library CCNG1
T29 chain: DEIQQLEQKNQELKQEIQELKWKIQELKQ

[30] = molecular target: T30, 4H908-bA; test: two-hybrid library CCNG1
T30 chain: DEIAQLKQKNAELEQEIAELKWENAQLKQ

[31] = molecular target: T31, 4H454-bA; test: two-hybrid library CCNG1
T31 chain: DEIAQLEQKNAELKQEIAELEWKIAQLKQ

[32] = molecular target: T32, 4H883-bA; test: two-hybrid library CCNG1
T32 chain: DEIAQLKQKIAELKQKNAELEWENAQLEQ

[33] = molecular target: T33, 4H797-bA; test: two-hybrid library CCNG1
T33 chain: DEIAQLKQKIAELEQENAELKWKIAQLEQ

[34] = molecular target: T34, 4H3843-bA; test: two-hybrid library CCNG1
T34 chain: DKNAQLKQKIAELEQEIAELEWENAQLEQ

[35] = molecular target: T35, 4H967-bA; test: two-hybrid library CCNG1
T35 chain: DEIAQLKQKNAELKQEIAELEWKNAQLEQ

[36] = molecular target: T36, 4H607-bA; test: two-hybrid library CCNG1
T36 chain: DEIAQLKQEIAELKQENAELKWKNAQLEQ

[37] = molecular target: T37, 4H3855-bA; test: two-hybrid library CCNG1
T37 chain: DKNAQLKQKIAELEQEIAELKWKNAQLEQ

[38] = molecular target: T38, 4H568-bA; test: two-hybrid library CCNG1
T38 chain: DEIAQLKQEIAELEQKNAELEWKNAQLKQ

[39] = molecular target: T39, 4H462-bA; test: two-hybrid library CCNG1
T39 chain: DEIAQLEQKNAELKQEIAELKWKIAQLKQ

[40] = molecular target: T40, 4H72-bA; test: two-hybrid library CCNG1
T40 chain: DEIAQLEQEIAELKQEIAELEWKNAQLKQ

[41] = molecular target: T41, 4H3855-bH; test: two-hybrid library CCNG1
T41 chain: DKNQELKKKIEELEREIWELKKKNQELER

[42] = molecular target: T42, 4H3782-bA; test: two-hybrid library CCNG1
T42 chain: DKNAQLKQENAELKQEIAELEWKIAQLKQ

[43] = molecular target: T43, 4H891-AA; test: two-hybrid library CCmax; details: mean of both orientations
T43 chain: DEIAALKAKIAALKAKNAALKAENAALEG

[44] = molecular target: T44, 4H850-AA; test: two-hybrid library CCmax; details: mean of both orientations
T44 chain: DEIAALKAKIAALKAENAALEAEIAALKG

[45] = molecular target: T45, 4H909-AA; test: two-hybrid library CCmax; details: mean of both orientations
T45 chain: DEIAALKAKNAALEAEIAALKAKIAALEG

[46] = molecular target: T46, 4H930-AA; test: two-hybrid library CCmax; details: mean of both orientations
T46 chain: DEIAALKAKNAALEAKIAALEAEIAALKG

[47] = molecular target: T47, 4H94-AA; test: two-hybrid library CCmax; details: mean of both orientations
T47 chain: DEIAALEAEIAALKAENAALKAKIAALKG

[48] = molecular target: T48, 4H688-AA; test: two-hybrid library CCmax; details: mean of both orientations
T48 chain: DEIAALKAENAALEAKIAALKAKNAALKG

[49] = molecular target: T49, 4H406-AA; test: two-hybrid library CCmax; details: mean of both orientations
T49 chain: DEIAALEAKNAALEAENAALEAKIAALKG

[50] = molecular target: T50, 4H963-AA; test: two-hybrid library CCmax; details: mean of both orientations
T50 chain: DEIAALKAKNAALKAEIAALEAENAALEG

[51] = molecular target: T51, 4H376-AA; test: two-hybrid library CCmax
T51 chain: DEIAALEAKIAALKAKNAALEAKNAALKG

interaction score [1]: -0.0681
interaction score [2]: 0.343
interaction score [3]: -1.67
interaction score [4]: -0.0786
interaction score [5]: -2.2
interaction score [6]: 0.115
interaction score [7]: -0.717
interaction score [8]: 0.0825
interaction score [9]: 0.728
interaction score [10]: -1.97
B1: 4H3638-bA (peptide)
chain: DKNAQLKQEIAELEQKNAELEWKIAQLKQ

interaction score [11]: -1.4
interaction score [12]: -1.15
interaction score [13]: -0.559
interaction score [14]: -1.37
interaction score [15]: -1.19
interaction score [16]: -1.34
interaction score [17]: 0.0522
interaction score [18]: -1.87
interaction score [19]: -1.38
interaction score ([20]; mean of both orientations): -1.82
interaction score [21]: 1.89
B2: 4H717-AA (peptide)
chain: DEIAALKAENAALKAEIAALKAKIAALEG

interaction score [22]: 0.27
interaction score [23]: -1.34
interaction score [24]: -0.898
interaction score [25]: 0.572
interaction score [26]: -1.07
interaction score [27]: 0.761
interaction score [28]: -0.182
interaction score [29]: 1.22
interaction score [30]: -1.42
interaction score [31]: 1.64
interaction score [32]: 0.21
interaction score [33]: 0.173
interaction score [34]: 1.18
interaction score [35]: 0.0169
interaction score [36]: -0.58
interaction score [37]: 0.312
interaction score [38]: -1.41
interaction score [39]: 0.962
interaction score [40]: -0.987
interaction score [41]: 0.603
interaction score [42]: 1.29
B3: 4H3782-bA (peptide)
chain: DKNAQLKQENAELKQEIAELEWKIAQLKQ

interaction score [22]: -0.268
interaction score [23]: -1.1
interaction score [25]: -0.85
interaction score [26]: -1.38
interaction score [32]: -1.14
interaction score [33]: -0.879
interaction score [34]: -0.878
interaction score [35]: -1.25
interaction score [36]: -0.651
interaction score [38]: -1.79
interaction score [39]: -0.841
interaction score [40]: 0.286
B4: 4H3843-bA (peptide)
chain: DKNAQLKQKIAELEQEIAELEWENAQLEQ

interaction score [43]: -1.35
interaction score [11]: 1.76
interaction score [13]: -1.81
interaction score [16]: -0.389
interaction score [44]: 1.16
interaction score [18]: -0.955
interaction score [45]: -0.899
interaction score [46]: -1.72
interaction score ([20]; mean of both orientations): -1.4
interaction score [47]: 0.948
B5: 4H797-AA (peptide)
chain: DEIAALKAKIAALEAENAALKAKIAALEG

interaction score [13]: -2.15
interaction score [16]: -1.46
interaction score [18]: -2.05
interaction score [20]: -1.73
B6: 4H883-AA (peptide)
chain: DEIAALKAKIAALKAKNAALEAENAALEG

interaction score [48]: -1.96
interaction score [49]: -0.774
interaction score [50]: -1.33
interaction score [51]: -1.28
B7: 4H376-AA (peptide)
chain: DEIAALEAKIAALKAKNAALEAKNAALKG

Source: paper PMC10397247
